Laboratory results taken from patent publication US20240228562A1, “NOVEL LIPOCALIN MUTEINS SPECIFIC FOR CONNECTIVE TISSUE GROWTH FACTOR (CTGF)” (PIERIS PHARMACEUTICALS GMBH, priority 2021, published 2024).

T1: CTGF (Homo sapiens, UniProt P29279)
T1 sequence (P29279 27-349): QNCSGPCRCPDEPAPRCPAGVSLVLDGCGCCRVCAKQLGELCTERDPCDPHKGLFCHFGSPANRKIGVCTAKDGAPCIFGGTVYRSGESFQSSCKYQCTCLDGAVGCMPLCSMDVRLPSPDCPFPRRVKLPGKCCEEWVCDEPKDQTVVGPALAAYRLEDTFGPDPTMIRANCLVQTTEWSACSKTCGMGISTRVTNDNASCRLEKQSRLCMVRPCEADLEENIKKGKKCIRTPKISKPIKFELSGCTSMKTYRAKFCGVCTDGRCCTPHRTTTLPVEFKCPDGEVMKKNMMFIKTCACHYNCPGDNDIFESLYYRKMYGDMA


Tests used:
[1] = system: CCL-206 lung fibroblasts co-cultured with primary murine Epcam-positive epithelial progenitor cells; experiment: Lung organoid formation model; type: cell-based; details: 14 days treatment; nintedanib 100 nM; SEQ ID NO: 74 at 100 nM
Experimental: The effect of CTGF-targeting lipocalin muteins was analyzed using an organoid model for lung regeneration. In this model, CCL-206 lung fibroblasts are co-cultured with freshly isolated primary murine Epcam-positive epithelial progenitor cells, and the number of formed organoids is analyzed after 14 days. TGF-b1 pre-treatment of CCL-206 fibroblasts leads to an impaired organoid formation and resembles an impairment of lung regeneration as for example observed in lung disease, such as IPF. The impaired formation of organoids can be rescued by treatment with different drugs, such as nintedanib, which is used as a positive control in this model. […] Analysis of organoid numbers confirmed the impairment of organoid formation by TGF-b1 stimulation.

[2] = target: T1, CTGF; experiment: ELISA-based competition assay with anti-CTGF antibody; type: binding; details: data not shown

Competition with antibody of SEQ ID NOs: 60 and 61 for binding to CTGF [2]	Molecule	Effect on TGF-b1 impaired organoid formation [1]
	SEQ ID NO: 74: fusion protein comprising two CTGF-binding lipocalin muteins (protein, fusion protein) QDSTSDLIPAPPLSKVPLQQNFQDNQFQGKWYVVGLAGNAILREDKQPAKMFATIYELKEDKSYDVTSVRFEAKSCKYTIKTFVPGSQPGEFTAGYIKSAPGQTSTLVRVVSTNYNQHAMVFFKHVTQNREIFVITLYGRTKELTSELKENFIRFSKSLGLPENHIVFPVPIDQCIDGGGGGSGGGGSGGGGSQDSTSDLIPAPPLSKVPLQQNFQDNQFQGKWYVVGWAGNVKLREDKQPQKMSATIYELKEDKSYDVTEVVFEQKKCHYIIKTFVPGSQPGEFTAGDIKSPPGYTSSLVRVVSTNYNQHAMVFFKKVSQNREFFWITLYGRTKELTSELKENFIRFSKSLGLPENHIVFPVPIDQCIDG	even stronger trend for improved organoid formation
competed with the antibody	SEQ ID NO: 23: optimized CTGF-binding hNGAL lipocalin mutein (protein, lipocalin mutein) QDSTSDLIPAPPLSKVPLQQNFQDNQFQGKWYVVGVAGNAILRPDKQPAKMFATIYELKEDKSYDVTSVRFEAKSCKYTIKTFVPGSQPGEFTSGQIKSAPGQTSTLVRVVSTNYNQHAMVFFKHVSQNREIFVITLYGRTKELTSELKENFIRFSKSLGLPENHIVFPVPIDQCIDG	
